What was measured:
[1] = target: T1, D2 domain of human IL2Rγ extracellular domain expressed with a C-terminal myc-myc-hexahistidine tag (human); assay: SPR Biacore 4000, mAb captured on anti-hFc, 25°C
T1 construct: whole entry is the tagged construct
T1 chain: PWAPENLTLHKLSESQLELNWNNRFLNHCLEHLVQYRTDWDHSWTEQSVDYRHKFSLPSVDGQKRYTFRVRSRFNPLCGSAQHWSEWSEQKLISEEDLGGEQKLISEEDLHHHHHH
Experimental: (§1) Equilibrium dissociation constants (KD values) for IL-2Rγ binding to purified anti-IL2Rγ monoclonal antibodies were determined using a Biacore 4000 instrument equipped with a real-time surface plasmon resonance biosensor. All binding studies were performed in 10 mM HEPES, 150 mM NaCl, 3 mM EDTA, and 0.05% v/v Surfactant Tween-20, pH 7.4 (HBS-ET) running buffer at 25° C. and 37° C. The Biacore sensor surface was first derivatized by amine coupling with a monoclonal mouse anti-human Fc antibody (GE, #BR-1008-39) to capture anti-IL2Rγ monoclonal antibodies.

[2] = target: T1, D2 domain of human IL2Rγ extracellular …; assay: SPR Biacore 4000, mAb captured on anti-hFc, 37°C
Experimental: as §1

[3] = target: T2, Human IL2Rγ extracellular domain expressed with a C-terminal myc-myc-hexahistidine tag (human); assay: SPR Biacore 4000, mAb captured by anti-hFc, HBS-ET, 37C
T2 construct: also called hIL-2Rg-MMH; hIL-2RG-MMH
T2 chain: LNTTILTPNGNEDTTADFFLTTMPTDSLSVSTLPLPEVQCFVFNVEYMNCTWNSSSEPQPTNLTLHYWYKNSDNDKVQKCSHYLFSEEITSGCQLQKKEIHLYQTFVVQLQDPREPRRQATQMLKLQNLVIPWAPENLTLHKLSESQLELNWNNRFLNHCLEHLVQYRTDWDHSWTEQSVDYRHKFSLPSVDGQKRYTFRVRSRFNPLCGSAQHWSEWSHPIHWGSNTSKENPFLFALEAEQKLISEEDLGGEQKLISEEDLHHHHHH
Experimental: as §1

[4] = target: T2, Human IL2Rγ extracellular domain …; assay: SPR Biacore 4000, mAb captured by anti-hFc, HBS-ET, 25C
Experimental: as §1

[5] = target: T3, D1 domain of human IL-2Rγ extracellular domain expressed with a C-terminal myc-myc-hexahistidine tag (human); assay: SPR Biacore 4000, mAb captured on anti-hFc, 25°C
T3 construct: whole entry is the tagged construct
T3 chain: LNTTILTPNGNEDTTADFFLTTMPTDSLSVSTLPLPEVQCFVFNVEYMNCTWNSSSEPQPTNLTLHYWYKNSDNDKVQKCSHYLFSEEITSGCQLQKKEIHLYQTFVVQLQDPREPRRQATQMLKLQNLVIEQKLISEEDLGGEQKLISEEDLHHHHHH
Experimental: as §1

[6] = target: T3, D1 domain of human IL-2Rγ extracellular …; assay: SPR Biacore 4000, mAb captured on anti-hFc, 37°C
Experimental: as §1

[7] = target: T4, human IL-2Rγ expressed on cells (human, UniProt P31785 23-369); assay: flow cytometry on NK-92 cells, antibody at 10 µg/ml; high end of the range, tied to 'H4H13841P' (taken as H4H13541P) by Table 9-2
T4 construct: whole, on cells; endogenous receptor on human cells; also called IL-2Rgamma; CD132
T4 sequence (looked up): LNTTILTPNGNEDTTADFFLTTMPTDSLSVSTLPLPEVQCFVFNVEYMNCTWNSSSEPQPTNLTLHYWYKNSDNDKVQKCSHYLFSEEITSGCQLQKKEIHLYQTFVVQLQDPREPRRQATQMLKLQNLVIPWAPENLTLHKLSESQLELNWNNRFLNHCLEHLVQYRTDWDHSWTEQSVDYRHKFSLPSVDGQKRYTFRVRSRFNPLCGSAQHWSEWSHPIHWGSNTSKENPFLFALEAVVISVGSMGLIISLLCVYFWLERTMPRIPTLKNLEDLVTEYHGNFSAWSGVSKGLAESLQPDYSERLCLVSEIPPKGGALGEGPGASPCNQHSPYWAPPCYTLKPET

[8] = target: T4, human IL-2Rγ expressed on cells; assay: flow cytometry on NK-92 cells, antibody at 10 µg/ml; low end of the range, tied to H4H12859P by Table 9-1
[9] = target: T4, human IL-2Rγ expressed on cells; assay: flow cytometry on NK-92 cells, antibody at 10 µg/ml; low end of the range, tied to H4H13538P by Table 9-2
[10] = target: T4, human IL-2Rγ expressed on cells; assay: flow cytometry on NK-92 cells, antibody at 10 µg/ml; high end of the range, tied to H4H12889P by Table 9-1
[11] = target: T4, human IL-2Rγ expressed on cells; assay: flow cytometry on Jurkat cells, antibody at 10 µg/ml; high end of the range, tied to H4H12889P by Table 9-1

B1: H4H12927P2 (antibody, human IgG4 S228P, kappa, V domains shown)
VH: EVQLVESGGGVVRPGGSLRLSCATSGFTFDDYGMSWVRQVPGKGLEWVSSVNRNGGTTDYADSVKGRFTISRDNAKRSLFLQMNSLRAEDTALYHCATGELFFDYWGQGTLVTVSS
VL: not shown
notes: anti-IL2Rγ mAb expressed with human IgG4 Fc
B1 was tested, and the “100 nM Ag Bound” value [1] was 14 RU and the “100 nM Ag Bound” value [2] was 2 RU.

B2: H4H12927P2 (antibody, human IgG4 S228P, kappa, V domains shown)
VH: EVQLVESGGGVVRPGGSLRLSCATSGFTFDDYGMSWVRQVPGKGLEWVSSVNRNGGTTDYADSVKGRFTISRDNAKRSLFLQMNSLRAEDTALYHCATGELFFDYWGQGTLVTVSS
VL: not shown
notes: anti-IL2Rgamma monoclonal antibody expressed with human IgG4 Fc
B2 was tested, and the “100 nM Ag Bound” value [3] was 5 RU and the “100 nM Ag Bound” value [4] was 18 RU.

B3: H4H12926P2 (antibody, human IgG4 S228P, kappa, V domains shown)
VH: QVQLQQSGPGLVKPSQTLSLTCAISGDSVSSNIAAWNWIRLSPSRGLEWLGRTFFRSTWFYDYSLSVKGRITINPDTSKNQFSLHLNSVTPEDAAVYYCARTGRRWSLDYWGQGTLVTVSS
VL: not shown
notes: as for B1
In the case of B3, the “100 nM Ag Bound” value [5] is reported as 8 RU and the “100 nM Ag Bound” value [6] is reported as 2 RU.

B4: H4H12926P2 (antibody, human IgG4 S228P, kappa, V domains shown)
VH: QVQLQQSGPGLVKPSQTLSLTCAISGDSVSSNIAAWNWIRLSPSRGLEWLGRTFFRSTWFYDYSLSVKGRITINPDTSKNQFSLHLNSVTPEDAAVYYCARTGRRWSLDYWGQGTLVTVSS
VL: not shown
notes: as for B2
For B4, the “100 nM Ag Bound” value [3] was 2 RU and the “100 nM Ag Bound” value [4] was 13 RU.

B5: H4H12874P (antibody, human IgG4 S228P, kappa, V domains shown)
VH: QVQLVESGGGVVQPGRSLRLSCAASGFNFRNFGMHWVRQAPGKGLEWVAGILYDGSSKYYADSVKDRFTISRDNSKNTLFLQMNSLRAEDTAMYYCAKEEDTAMVPFDSWGPGTLVTVSS
VL: DIQLTQSPSFLSASVGDRVTITCWASQGISSYLAWYQQKPGKAPTLLIYAASTLQSGVPSRFSGSGSGTEFTLTISSLQPEDFASYYCQQLKSYPLTFGGGTKVEIKR
notes: as for B1
With B5 the “100 nM Ag Bound” value [1] was 10 RU and the “100 nM Ag Bound” value [2] was 2 RU.

B6: H4H13541P (antibody, human IgG4 S228P, kappa, V domains shown)
VH: EVQLVESGGGVVRPGGSLRLSCAASGFIFDDYDMSWVRQPPGRGLEWVSGIDWFGGTRGYADSMKGRFTISRDNAKNSLYLQMNSLRVEDTAFYYCARGGAIVGAVTPFDYWGQGTLVTVSS
VL: DIQMTQSPSSLSASVGNRVTLSCRASQSINTYLSWYQQRPGKAPKLLIYAASSLQSGVPSRFSGSGAGTDFTLTISSLQPEDFATYYCQQSYSAPLTFGGGTKVEIKR
notes: anti-IL2Rγ human antibody, human IgG4 Fc; also called H4H13841P
For B6, the “binding ratio (sample MFI over unstained MFI)” value (from here on “binding ratio”) [7] was 37 ratio.

B7: H4H12859P (antibody, human IgG4 S228P, kappa, V domains shown)
VH: QVQLVQSGAEVKKPGASVRVSCKASGYTFTDYDIHWVRQAPGHGLEWMGWINPNSGGTNYAQKFQGRVTMTRDTSISTVYMDLSRLRSDDTAVYYCARADYSSSYYYYGMDVWGQGTTVTVSS
VL: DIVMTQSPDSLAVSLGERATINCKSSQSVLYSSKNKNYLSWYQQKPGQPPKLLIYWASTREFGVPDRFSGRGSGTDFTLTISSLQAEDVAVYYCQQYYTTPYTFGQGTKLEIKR
notes: anti-IL2Rγ human antibody, human IgG4 Fc
For B7, the “binding ratio” value [8] was 1 ratio.

B8: H4H13538P (antibody, human IgG4 S228P, kappa, V domains shown)
VH: EVQLVESGGGLVQPGGSLGLSCAASGFTFSNYAMSWVRQAPGKGLEWVSAVSGGGGGTYYADSVKGRFTISRDNSKNTVLLQMNSLRAEDTAVYYCARGRTGGLDYWGPGTLVTVSS
VL: DVVMTQSPLSLPVIFGQPASISCRSSQSLVDSDGNTYLNWLQQRPGQSPRRLIYEVSNRDSGVPDRFSGSGSGTDFTLTISRVEAEDVGIYYCMQGTRWPPTFGGGTKVEIKR
notes: as for B7
B8 was tested, and the “binding ratio” value [9] was 1 ratio.

B9: H4H12889P (antibody, human IgG4 S228P, kappa, V domains shown)
VH: EVQLVESGGGLVQPGGSLRLSCAASGFIFSSYEMHWVRQAPGKGLEWISYISSSGTTIYYADSVKGRFTISRDNAKNSLYLHMNSLRAEDTAVYYCTRARITGTFDVFDIWGQGTMVTVSS
VL: DIQMTQSPSSLSASVGDRVTITCRASQSISSYLNWYQQKPGKAPKLLIFAASNLQSGVPSRFSGSRSGTDFTLTISSLQPEDFATYYCQQNYNIPYTFGQGTKLEIKR
notes: anti-IL2Rγ human antibody, human IgG4 Fc; also called REGN7257
In the case of B9, the “binding ratio” value [10] is reported as 94 ratio and the “binding ratio” value [11] is reported as 19 ratio.

Reference: patent US20230279131A1 (published 2023)
